# Test results published in patent publication US20240287160A1.
# Target: EBOV GP on infectious virus (Ebola virus , Mayinga) (UniProt Q05320)
# Test: cell-based or functional assay
# Sequence of UniProt Q05320 (Q05320 33-676): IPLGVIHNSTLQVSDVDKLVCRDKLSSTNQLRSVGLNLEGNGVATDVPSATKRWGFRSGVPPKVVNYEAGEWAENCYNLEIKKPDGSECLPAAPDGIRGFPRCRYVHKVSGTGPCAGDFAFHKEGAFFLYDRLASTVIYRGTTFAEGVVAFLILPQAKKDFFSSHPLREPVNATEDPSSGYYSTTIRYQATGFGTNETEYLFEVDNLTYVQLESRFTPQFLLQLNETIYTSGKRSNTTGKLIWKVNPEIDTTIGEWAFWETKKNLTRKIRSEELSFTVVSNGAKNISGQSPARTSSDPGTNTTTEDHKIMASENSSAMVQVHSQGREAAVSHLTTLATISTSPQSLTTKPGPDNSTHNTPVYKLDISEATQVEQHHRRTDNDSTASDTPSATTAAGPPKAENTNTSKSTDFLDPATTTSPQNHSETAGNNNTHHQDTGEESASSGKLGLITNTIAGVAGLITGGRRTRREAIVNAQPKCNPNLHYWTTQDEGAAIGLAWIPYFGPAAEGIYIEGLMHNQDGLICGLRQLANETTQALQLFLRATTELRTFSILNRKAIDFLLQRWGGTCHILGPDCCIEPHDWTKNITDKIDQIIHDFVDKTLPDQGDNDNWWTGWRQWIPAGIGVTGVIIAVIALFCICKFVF
binder,measurement,value
"rEBOV-442 IgG1 (antibody, V domains shown) VH: EVQLVESGGGLVKPGGSLRLSCTGSGGTGFTFKYAGMSWVRQAPGKGPEWIGRIKSRIDGGTTDYAAPVKDRFIVSRDDSRNTLYLQMNSLKTEDTAVYYCATGSGKGPSASFGESYYYYDFINVWGKGTTVTVSS VL: ESVLTQSPGTLSLSPGERATLSCRASQSISRKYLAWYQQKPGQAPRLLIYGSSSRATGIPDRFSGSGSGTDFTLTISRLEPEDFAVYYCHQYESSPWTFGQGTKVEIK","half maximal inhibitory concentration (IC50), neutralization of VSV/EBOV GP",< 1.5 µg/mL
"rEBOV-515 (recombinant wild-type IgG1) (antibody, V domains shown) VH: QVQLHESGPGLVKPSQTLSLTCTVSGGSINSAGYYWTWIRQHPGKGLEWIGYIDYTGRTYYNPSLESRVIISIDTSKNHFSLRLTSVSAADTAVYYCARESSWVSELGRDNWGQGTLVTVSS VL: EIVMTQSPATLPVSPGEGATLSCRASQSVFTNLAWYQQKPGQAPRLLIYDASTRATGIPARFSGSGSGTEFTLTISSLQSEDFAVYYCQQYNNWPRTYGQGTRVEVK","half maximal inhibitory concentration (IC50), neutralization of VSV/EBOV GP",< 1.5 µg/mL
